In PMC5120205:

Tests used:
[1] = molecular target: D3-24-N1; experiment: ELISA
[2] = molecular target: D3-23-N1; experiment: ELISA
[3] = molecular target: D1-10-N1; experiment: ELISA
[4] = molecular target: D3-12-N1; experiment: ELISA
[5] = molecular target: D2-14-N1; experiment: ELISA
[6] = molecular target: D3-03-N1; experiment: ELISA
[7] = molecular target: D2-14-N1 (human); experiment: SPR
Chain of D2-14-N1 (human) (heavy, as listed by the source): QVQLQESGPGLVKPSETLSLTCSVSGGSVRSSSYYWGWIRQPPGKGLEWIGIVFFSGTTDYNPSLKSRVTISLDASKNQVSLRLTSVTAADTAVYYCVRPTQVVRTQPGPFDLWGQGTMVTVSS

| Substance | percent of parent [1] [%] | percent of parent [2] [%] | percent of parent [3] [%] | percent of parent [4] [%] | percent of parent [5] [%] | percent of parent [6] [%] | Kd [7] [pM] |
| --- | --- | --- | --- | --- | --- | --- | --- |
| recombinant full-length IsdB (from UniProt Q2FHV2) Y165R | 5 | 3 | 3 | 3 | 3 | 3 | – |
| recombinant full-length IsdB (natural protein) | – | – | – | – | – | – | 4 to 12 |
